Article PMC4773420 (Nature Communications, 2016)
Values belong to the binder of their own block, whether it stands above or below them.

Columns and labels:
6His-PABPC1(1-190) = 6His-PABPC1(1-190) (human, UniProt P11940 1-190); assay: EMSA; 100 nM RNA; complete shift at 7 pmol protein per 1 pmol RNA; EMSA: 100 nM 5'-fluorescein RNA, native PAGE; EMSA buffer not in the material (deadenylation assays: 20 mM HEPES-KOH pH 8.0, 100 mM KCl, 0.5 mM DTT, 0.1% Igepal)
6His-PABPC1(FL) = 6His-PABPC1(FL) (human, UniProt P11940 1-636); assay: EMSA; 100 nM RNA; complete shift at 7 pmol protein per 1 pmol RNA; multiple PABPC1 molecules bound; EMSA: 100 nM 5'-fluorescein RNA, native PAGE; EMSA buffer not in the material (deadenylation assays: 20 mM HEPES-KOH pH 8.0, 100 mM KCl, 0.5 mM DTT, 0.1% Igepal)
Sequence of 6His-PABPC1(FL) (P11940 whole entry): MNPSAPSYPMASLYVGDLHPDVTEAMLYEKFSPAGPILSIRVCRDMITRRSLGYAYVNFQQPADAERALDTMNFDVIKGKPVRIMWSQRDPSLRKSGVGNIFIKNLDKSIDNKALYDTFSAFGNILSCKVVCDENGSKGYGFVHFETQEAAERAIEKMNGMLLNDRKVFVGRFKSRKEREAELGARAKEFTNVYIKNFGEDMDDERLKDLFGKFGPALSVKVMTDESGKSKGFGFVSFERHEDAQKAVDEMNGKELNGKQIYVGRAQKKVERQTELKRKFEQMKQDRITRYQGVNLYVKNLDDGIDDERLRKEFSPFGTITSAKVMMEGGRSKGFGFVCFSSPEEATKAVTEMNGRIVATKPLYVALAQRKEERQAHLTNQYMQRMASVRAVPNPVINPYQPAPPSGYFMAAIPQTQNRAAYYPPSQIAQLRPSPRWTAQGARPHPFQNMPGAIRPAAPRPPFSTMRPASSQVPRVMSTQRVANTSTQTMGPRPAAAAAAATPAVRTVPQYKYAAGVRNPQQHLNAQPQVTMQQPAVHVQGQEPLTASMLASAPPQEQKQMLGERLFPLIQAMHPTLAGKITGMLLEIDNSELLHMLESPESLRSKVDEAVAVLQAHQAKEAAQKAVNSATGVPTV

6His-PABPC1(1–190) = target: T1, 6His-PABPC1(1–190) (human, UniProt P11940 1-190); assay: AUC; analytical ultracentrifugation of BTG2(APRO) (GST removed) and 6His-PABPC1(1–190), both purified to homogeneity; no RNA (Supplementary Fig. 2); settings: both partners purified
T1 construct: PABPC1, human, RRM domains 1 and 2, amino acids 1-190; also called 6His-tagged PABPC1 RRM domains 1 and 2; first two RRMs of PABPC1; source: E. coli BL21-CodonPlus; co-expressed, in lysate (pull-down); purified (HisTrap FF crude, Superdex 75)
T1 sequence (P11940 1-190): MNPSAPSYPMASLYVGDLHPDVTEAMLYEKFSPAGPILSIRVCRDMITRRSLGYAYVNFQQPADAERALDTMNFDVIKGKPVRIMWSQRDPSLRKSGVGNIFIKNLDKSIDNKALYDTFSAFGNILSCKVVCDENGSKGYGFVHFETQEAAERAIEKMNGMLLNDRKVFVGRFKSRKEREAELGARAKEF

Sequence of 6His-PABPC1(1-190) (P11940 1-190): as above

B1: 5'Fluo-poly(A)75 (ssRNA)
RNA: AAAAAAAAAAAAAAAAAAAAAAAAAAAAAAAAAAAAAAAAAAAAAAAAAAAAAAAAAAAAAAAAAAAAAAAAAAA
- binding result (6His-PABPC1(1-190)): binds
- binding result (6His-PABPC1(FL)): binds

- Kd (6His-PABPC1(1–190)): ~5 µM
- stoichiometry N (6His-PABPC1(1–190)): 1
B2: BTG2(APRO) (domain or fragment, human, UniProt P78543 1-126, looked up)
chain: MSHGKGTDMLPEIAAAVGFLSSLLRTRGCVSEQRLKVFSGALQEALTEHYKHHWFPEKPSKGSGYRCIRINHKMDPIISRVASQIGLSQPQLHQLLPSELTLWVDPYEVSYRIGEDGSICVLYEEA
notes: BTG2, human, APRO domain; also called BTG2 APRO domain, GST removed; source: E. coli BL21-CodonPlus, purified (GSTrap FF, thrombin cleavage, Superdex 75)
